± gives the standard deviation of the averaged measurements.
Assays:
[1] = tested on: VchCAST RNA-guided transposition machinery (E. coli BL21(DE3) host, lacZ target); test: relative integration efficiency (T-RL orientation) vs wild-type transposon end (log2 (normalized fold change)); transposon end mutated: right end (5 bp flank + 75 bp right end); higher = more efficient transposition
Outline: (§1)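 Relative integration efficiency is a fold change of output over input barcode abundance, normalised to reference barcodes and log-transformed. Input plasmids and genomic integration junctions were PCR-amplified and Illumina-sequenced from E. coli BL21(DE3) co-transformed with a T7-driven effector plasmid and pUC57 donor pools of 1549 left-end or 1849 right-end transposon variants. Plating was done with 0.1 mM IPTG at 37°C for 18 h, with two biological output replicates and four reference barcodes.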

[2] = tested on: VchCAST RNA-guided transposition machinery (E. coli BL21(DE3) host, lacZ target); test: relative integration efficiency (T-LR orientation) vs wild-type transposon end (log2 (normalized fold change)); transposon end mutated: right end (5 bp flank + 75 bp right end); higher = more efficient transposition
Outline: as §1

Q: Which results are given for “ACATTTGTTGATACAACCATAAAAAGATAATTACACCCATAAATTGATAATGATGACACCGAATTTAACTATAACGCTCTGATCATAGTCAGACCAACATTGCTACGACCCGTATTCGCACCGACAC”?
A: relative integration efficiency (log2) [1]: -1.33 ± 0.2; relative integration efficiency (log2) [2]: 2.23 ± 0.057

Q: Which “relative integration efficiency (log2)” value [1] does the source give for “ACATTTGTTGATACAACCATAAAAAGATAATTACACCCATAAATTGATAATTGTGACACCGAATTTAACTATAACGCTCTGATCATAGTCAGACCAACATTGCTACGACCCGTATTCGCACCGACAC” here?
A: -1.15 ± 0.29

Q: What about the “relative integration efficiency (log2)” value [2] of the same sequence?
A: 2.38 ± 0.082

Q: Which “relative integration efficiency (log2)” value [1] does the source give for “ACATTTGTTGATACAACCATAAAACGATAATTACACCCATAAATGGATAATTATCACACCCAATTTAACTATAACGCTCTGATCATAGTCAGACCAACATTGCTACGACCCGTATTCGCACCGACAC” here?
A: -1.18 ± 0.21

Q: And the “relative integration efficiency (log2)” value [2]?
A: 1.52 ± 0.035

Q: Which “relative integration efficiency (log2)” value [1] does the source give for “ACATTTGTTGATACAACCATAAAACGATAATTACACCCATAAATGGATCATTATCACACCCAATTTAACTATAACGCTCTGATCATAGTCAGACCAACATTGCTACGACCCGTATTCGCACCGACAC” here?
A: -1.78 ± 0.29

Q: And the “relative integration efficiency (log2)” value [2]?
A: 1.06 ± 0.24

Q: Which results are given for “ACATTTGTTGATACAACCATAAAACGATAATTACACCCATAAATTCATAATTATCACACCCAATTTAACTATAACGCTCTGATCATAGTCAGACCAACATTGCTACGACCCGTATTCGCACCGACAC”?
A: relative integration efficiency (log2) [1]: -2.21 ± 0.42; relative integration efficiency (log2) [2]: 1.3 ± 0.2

Q: With “ACATTTGTTGATACAACCATAAAACGATAATTACACCCATAAATTCATCATTATCACACCCAATTTAACTATAACGCTCTGATCATAGTCAGACCAACATTGCTACGACCCGTATTCGCACCGACAC” as the sequence, how does the “relative integration efficiency (log2)” value [1] read?
A: -2.21 ± 0.32

Q: What about the “relative integration efficiency (log2)” value [2] of the same sequence?
A: 1.29 ± 0.12

Q: Which results are given for “ACATTTGTTGATACAACCATAAAACGATAATTACACCCATAAATTGATCATTATCACACCCAATTTAACTATAACGCTCTGATCATAGTCAGACCAACATTGCTACGACCCGTATTCGCACCGACAC”?
A: relative integration efficiency (log2) [1]: -1.68 ± 0.16; relative integration efficiency (log2) [2]: 1.86 ± 0.099

Q: With “ACATTTGTTGATACAACCATAAAAGGATAATTACACCCATAAATGGATAATTATCACACCCATAAATGGATATTGCCTCTGATCATAGTCAGACCAACATTGCTACGACCCGTATTCGCACCGACAC” as the sequence, how does the “relative integration efficiency (log2)” value [1] read?
A: -1.1 ± 0.065

Q: What about the “relative integration efficiency (log2)” value [2] of the same sequence?
A: -0.23 ± 0.13

Q: With “ACATTTGTTGATACAACCATAAAAGGATAATTACACCCATAAATTGATAATTATCACACCCCATTTAACTATAACGCTCTGATCATAGTCAGACCAACATTGCTACGACCCGTATTCGCACCGACAC” as the sequence, how does the “relative integration efficiency (log2)” value [1] read?
A: -1.31 ± 0.2

Q: And the “relative integration efficiency (log2)” value [2]?
A: 2.32 ± 0.013

Q: What does the source list for “ACATTTGTTGATACAACCATAAAAGGATAATTACACCCATAAATTGATAATTATCCCACCCAATTTAACTATAACGCTCTGATCATAGTCAGACCAACATTGCTACGACCCGTATTCGCACCGACAC”?
A: relative integration efficiency (log2) [1]: -0.818 ± 0.21; relative integration efficiency (log2) [2]: 1.98 ± 0.22

Q: What does the source list for “ACATTTGTTGATACAACCATAAAAGGATAATTACACCCATAAATTGATAATTATCCCACCCCATTTAACTATAACGCTCTGATCATAGTCAGACCAACATTGCTACGACCCGTATTCGCACCGACAC”?
A: relative integration efficiency (log2) [1]: -0.775 ± 0.14; relative integration efficiency (log2) [2]: 2.28 ± 0.097

Q: “ACATTTGTTGATACAACCATAAAAGGATAATTACACCCATCAATTGATAATTATCACACCCAATTTAACTATAACGCTCTGATCATAGTCAGACCAACATTGCTACGACCCGTATTCGCACCGACAC” was tested. Which “relative integration efficiency (log2)” value [1] did it give?
A: -2.32 ± 0.29

Q: And the “relative integration efficiency (log2)” value [2]?
A: 1.06 ± 0.24

Q: Which “relative integration efficiency (log2)” value [1] does the source give for “ACATTTGTTGATACAACCATAAAAGGATAATTACACCCATCAATTGATAATTATCACACCCCATTTAACTATAACGCTCTGATCATAGTCAGACCAACATTGCTACGACCCGTATTCGCACCGACAC” here?
A: -2.2 ± 0.15

Q: What about the “relative integration efficiency (log2)” value [2] of the same sequence?
A: 1.27 ± 0.19

Q: For “ACATTTGTTGATACAACCATAAAAGGATAATTACACCCATCAATTGATAATTATCCCACCCAATTTAACTATAACGCTCTGATCATAGTCAGACCAACATTGCTACGACCCGTATTCGCACCGACAC”, which “relative integration efficiency (log2)” value [1] is on record?
A: -1.89 ± 0.25

Q: And the “relative integration efficiency (log2)” value [2]?
A: 0.901 ± 0.1

Q: For “ACATTTGTTGATACAACCATAAAAGGATAATTACACCCATCAATTGATAATTATCCCACCCCATTTAACTATAACGCTCTGATCATAGTCAGACCAACATTGCTACGACCCGTATTCGCACCGACAC”, which “relative integration efficiency (log2)” value [1] is on record?
A: -1.79 ± 0.17

Q: And the “relative integration efficiency (log2)” value [2]?
A: 0.942 ± 0.22

Q: For “ACATTTGTTGATACAACCATAAAAGGATAATTACCCCCATAAATTGATAATTATCACACCCAATTTAACTATAACGCTCTGATCATAGTCAGACCAACATTGCTACGACCCGTATTCGCACCGACAC”, which “relative integration efficiency (log2)” value [1] is on record?
A: -1.55 ± 0.26

Q: And the “relative integration efficiency (log2)” value [2]?
A: 1.37 ± 0.093

Q: “ACATTTGTTGATACAACCATAAAAGGATAATTACCCCCATAAATTGATAATTATCACACCCCATTTAACTATAACGCTCTGATCATAGTCAGACCAACATTGCTACGACCCGTATTCGCACCGACAC” was tested. Which “relative integration efficiency (log2)” value [1] did it give?
A: -1.46 ± 0.44

Q: And the “relative integration efficiency (log2)” value [2]?
A: 1.61 ± 0.2

Q: Which results are given for “ACATTTGTTGATACAACCATAAAAGGATAATTACCCCCATAAATTGATAATTATCCCACCCAATTTAACTATAACGCTCTGATCATAGTCAGACCAACATTGCTACGACCCGTATTCGCACCGACAC”?
A: relative integration efficiency (log2) [1]: -0.765 ± 0.32; relative integration efficiency (log2) [2]: 2.19 ± 0.4

— the supplement of paper PMC10201428
